Results taken from paper PMC4348373, “YY1 suppresses FEN1 over-expression and drug resistance in breast cancer”.

B1: WT FEN1 (dsDNA)
DNA 1: AACGCTCTCACCATTTTGCCCCGCGAAG
DNA 2: CTTCGCGGGGCAAAATGGTGAGAGCGTT
B2: MUT FEN1 (dsDNA)
DNA 1: AACGCTCTCAGCAATTTGCCCCGCGAAG
DNA 2: CTTCGCGGGGCAAATTGCTGAGAGCGTT

What was measured:
YY1 [1] = molecular target: T1, YY1 (UniProt P25490 1-414); assay: EMSA; complex diminished by anti-YY1, not by IgG (Fig 2C); Pull-down: 25 mM Tris, 150 mM NaCl, pH 7.2, room temperature, 30 min; EMSA: LightShift chemiluminescent kit, 5% native PAGE, buffer not stated; conditions: protein: recombinant; tags: N-terminal 3xFlag; label: 5'-biotin
T1 sequence (P25490 whole entry): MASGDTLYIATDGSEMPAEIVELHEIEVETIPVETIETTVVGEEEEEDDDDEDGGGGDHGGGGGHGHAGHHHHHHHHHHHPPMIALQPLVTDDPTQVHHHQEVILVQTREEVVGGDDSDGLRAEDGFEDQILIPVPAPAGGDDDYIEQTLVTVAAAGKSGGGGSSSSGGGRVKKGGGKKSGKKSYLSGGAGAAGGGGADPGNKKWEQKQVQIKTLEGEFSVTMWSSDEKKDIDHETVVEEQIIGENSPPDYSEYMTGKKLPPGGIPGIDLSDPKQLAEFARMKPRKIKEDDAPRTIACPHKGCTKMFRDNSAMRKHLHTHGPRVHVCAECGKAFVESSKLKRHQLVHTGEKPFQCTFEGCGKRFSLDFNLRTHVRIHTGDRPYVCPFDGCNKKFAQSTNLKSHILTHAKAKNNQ

YY1 [2] = molecular target: T1, YY1; assay: EMSA; Pull-down: 25 mM Tris, 150 mM NaCl, pH 7.2, room temperature, 30 min; EMSA: LightShift chemiluminescent kit, 5% native PAGE, buffer not stated; conditions: protein: recombinant; tags: N-terminal 3xFlag; label: 5'-biotin

Binder | binding result (YY1 [1]) | binding result (YY1 [2])
B1 | binds | 
B2 |  | no binding
